Reference: the supplement of paper PMC9170038

Tested on: MS2 coat protein
Experiment: apparent KD of MS2 coat protein; higher = weaker reporter binding
Settings: Eterna round: R107
How it was run: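 Apparent KD per design is the median of normalised cluster binding-curve fits. Designed RNA switches transcribed on-chip from Illumina sequencing clusters were titrated with SNAP-549-labelled MS2 coat protein in twofold steps from 0.7 or 1.5 nM to 3 µM, with 0.8–1.5 h down to 10–20 min per step. Buffer: 100 mM Tris-HCl pH 7.5, 80 mM KCl, 4 mM MgCl2, without or with constant ligand.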

[1] = input ligand: theophylline 20 uM
[2] = input ligand: theophylline 2 mM
[3] = input ligand: tryptophan 2.4 mM

| Sequence | apparent KD of MS2 coat protein (input ligand: arginine 13.2 mM) | apparent KD of MS2 coat protein (input ligand: none) | apparent KD of MS2 coat protein [1] | apparent KD of MS2 coat protein [2] | apparent KD of MS2 coat protein [3] |
| --- | --- | --- | --- | --- | --- |
| UGGUACAUGGCGGCCGCCACUUCACGUAAAAUAAAAACGUGAGGAUCACCCACGUAAUAAGUUGGGAGGACCGGGUCAUGUACCU | 122 nM | 321 nM | 344 nM | 491 nM | 123 nM |
| CUACAUUUGUAGAAACCGGUCAACAUUAUUCGAGGACCGGUACGGCCGCCACUCGUAUCAUUUGAUACAUGAGGAUCACCCAUGU [Tryptophan A 8] | 21.1 nM |  | 26.1 nM | 26.6 nM |  |
| AAUUCCUCACAUGAGGAUCACCCAUGUGAAGGAGCGCCGAAUAAGGCAGGUAGGUCGCACAUGGAAACCGCUACGAAAGUAGUAA [XArg-A 2 NuV2] | 18.7 nM | 19.9 nM | 25.3 nM | 22.1 nM | 19.2 nM |
| GCUGCCAUACGAAGGAGCGCUGUUGUAGUGAGGCGAACAUGAGGAUCACCCAUGUGGCAGCAGCAGGUAGGUCGCGUAUGGCAGC [EAB #13] | 13.7 nM | 18.6 nM | 35 nM | 33.9 nM | 26 nM |
| CGCACAUGAGGAUCACCCAUGUGAGGGCGGCGAGGACCGGUACGGCCGCCACUCGCAAAACAUGAGGAUCACCCAUGUGCCGCCG [SSTA DOUBLE!!! :-D #2] | 30.1 nM | 32.9 nM | 92.3 nM | 103 nM | 29.2 nM |
| AGCCACUCGAGUGAUCCUCACGAGUGGCUACGAGGACCGGUACGGCCGCCACUCGAAUUAACAUGAGGAUCACCCAUGUAAUCUA [Brourdmod07] | 22.5 nM |  | 227 nM | 196 nM |  |
| UAACAUGAGGAUCACCCAUGUUUAGAUGAACGAGGACCGGUACGGCCGCCACUCGAUAAGUGGCAAGAACGAGGGAUUGUAUGCU [Same State Trp A GF3] | 12.7 nM | 13.8 nM | 22.6 nM | 11.7 nM | 13.2 nM |
| AUGUAGAACCGAAGGAGCGCGAUGACAUGAGGAUCACCCAUGUAUUUGUGGUGGCUUCGAUCGCAGGUAGGUCGCGGAAGUAGUA [#04 Exclusion - Arginine B] | 96.6 nM | 128 nM | 162 nM | 346 nM | 211 nM |
| GAGCUGAUGUAGAGAUUAUAUAAAAGAGAUACCAGUACAGAAAUGUACCCUUGGCAGCUCAACUUUACAUGAGGAUCACCCAUGU [Ex Theophylline A 19] | 15.4 nM |  | 15.8 nM |  | 13.9 nM |
| AGCGCUGUGCAUGAUACCAGCUACAUGAGGAUCACCCAUGUGCGUCAGAAAUGACUGUGUAGCCCUUGGCAGCAUAAAGCAUGUA [Exclusion - Theophylline B (Freestyle 8)] | 19.7 nM |  | 26.6 nM |  | 19.6 nM |
| UUACAUGAGGAUCACCCAUGUCAUACAGAAGGAGCGUCACAUAAGACAGGUAGGUCGCUGUUAUUUCAUACUGUUAUAUCCUCUA [JR_Nu_ExcArginiA_Sub029] | 30.1 nM | 40.3 nM | 56.2 nM | 47.1 nM | 40 nM |
| AGUCUUAAUGGAAGGAGCGCAGUCAUAACAUGAGGAUCACCCAUGUCGAGGUGAGGGUCAUUGCAGGUAGGUCGCCAUACUAGGA [Same State - Arginine B (Freestyle 2)] | 84.6 nM | 181 nM | 264 nM | 240 nM | 131 nM |
| GAGUCCACGGCGGCCGCCACUCGCGGCGCCACAUGGCGCCGGGACAUGAGGAUCACCCAUGUCCCGAGGACCGGGCCGAUCCUUA [Same State Typrtophan B GF3] | 11.2 nM | 21 nM | 26.6 nM | 31.5 nM | 12.9 nM |
| UUGACAUGAGGAUCACCCAUGUCAAAGGCACGAGGACCGGUACGGCCGCCACUCGUGGUCUAUGGCUGGUGGACUCGUGUCUCGG [Soisusdira] | 12.2 nM | 12 nM | 16 nM | 16.8 nM | 10.8 nM |
| GAUAUGUUUCGAAGGAGCGGCCCUUGAUCCUCAUGAGACAUGAGGAUCACCCAUGUCUCGGGCCAGGUAGGUCGCGAAAUAUAUC [Astros-omei-mod4] | 30.3 nM | 19.2 nM | 32.1 nM | 21.4 nM | 19.5 nM |
| ACGUCCCGUUUACUCGUGGGUUAGGUCGAUACCAGUAUUCAAACUUACCCUUGGCAGCGACAUGAGGAUCACCCAUGUGCGAAGA [XTheo A #22] | 19 nM |  | 22.9 nM |  | 17.5 nM |
| GUUAGAUCAAAAGAUUUAACAGUGGGUGAACGAGGACCGGUACGGCCGCCACUCGGACAUGAGGAUCACCCAUGUCCAUGUGAAA [AstrosExyTryA#16] | 19.4 nM | 17.2 nM | 15.2 nM | 15.9 nM | 43.5 nM |
| GACCGGUUAUAGCGCGAUUGUCUUGUGGAAGGAGCGCAGAGGGCUGCAGGUAGGUCGCCACAUGAGGAUCACCCAUGUCAGGAAA [Biraesge] | 28.1 nM | 19.2 nM | 32.2 nM | 35.5 nM | 19.7 nM |
| AACAUGAGGAUCACCCAUGUCUGAACUGAAGGAGCGCUAAAUAAGGCAGGUAGGUCGCGGAAUUUUGUGUACAUAUGUAUAUGGG [9.H] | 21.7 nM | 25.9 nM | 32.2 nM | 35.8 nM | 23.8 nM |
| AAUUUUAACGGAAGGAGCGUCAAUUAAUACAAACAUGAGGAUCACCCAUGUCAAUACAUGAGACAGGUAGGUCGCCGUUAUUUGA [JR_AAArginiB_Sub024] | 23.9 nM | 22.1 nM | 28 nM | 21.7 nM | 23.3 nM |
| GGGCCCGGGCGCGAGCCCGGGCCCAUUGAUACCAGUGAUAUAUAACGCCCUUGGCAGCGAAUCCUAACAUGAGGAUCACCCAUGU [5.G] | 35.2 nM | 46.3 nM | 61.5 nM | 71.8 nM | 37 nM |
| ACAUGAGGAUCACCCAUGUCACGGCACGAUACCAGCUGAUCCGGUGGCCCUUGGCAGCGUGACGUUUGGUCCCGCGGAUCACACG [semullin] | 40 nM |  | 101 nM |  | 66.9 nM |
| ACGGACAUGAGGAUCACCCAUGUGGCCGAAGGAGCGGGAAUUAACCCAGGUAGGUCGCGGAAAUUUUUUAAAUUAUUUUAAUUUU [Same State - Arginine A] | 14.4 nM | 17.1 nM | 21.5 nM | 18.7 nM | 17.3 nM |
| GACAUUAACUGAAGGAGCGAGGUAGAACGGGAUGAGCAUACAUGAGGAUCACCCAUGUGGCCUCAGGUAGGUCGCAGAUGAGAUU [Exclusion Arginine B GF25] | 83.4 nM | 175 nM | 201 nM | 203 nM | 179 nM |
| AUACAUGAGGAUCACCCAUGUAAAGUUGAAGGAGCGACCAGAGGGUCAGGUAGGUCGCAACACAUGAGGAUCACCCAUGUAUCGA [DOUBLE!!! :-D #6] | 53.3 nM | 83.6 nM | 78.4 nM | 79.4 nM | 71.4 nM |
| GAGACAUGAGGAUCACCCAUGUUAGAUGAUACCAGUUAGAGAAGGAGCCCUUGGCAGCGUAAAUCUAGAGCCUAUGACGACAUGU [ss-theoA-1] | 16.2 nM |  | 15.8 nM |  | 13.2 nM |
| CCCAGUUAUAACAAAGGAAUUAUACUCGAAGGAGCGUCAUAGUAGGCAGGUAGGUCGCGAGACAUGAGGAUCACCCAUGUAGAGA [k,lmullin] | 32.1 nM | 42.3 nM | 56.3 nM | 49.4 nM | 50 nM |
| UCUUGAGUUUCGGAUACCAGUGAUGUCGAUACAUGAGGAUCACCCAUGUUAGAGGAUGUACACCCUUGGCAGCCGGGUGUGGCGG [wswmullin] | 25.1 nM | 36 nM | 42.1 nM | 27.5 nM | 44.9 nM |
| AAGGUGAUCCGUGAUACCAGCUCAACAUGAGGAUCACCCAUGUAACGGACGAAAGUCCGGAGCCCUUGGCAGCACGGUAAUAAUA [(M)'-(Theo1)-(Ms2)-(Theo2)-(M'')_Design2b] | 10.4 nM |  | 15.1 nM |  | 11.6 nM |
